Experimental data published in patent US20040006009A1.

Target: MASP (MBL-associated serine proteases) purified from an MBL deficient individual
Experiment: cell-based or functional assay

C4-activation compared to the reference N105-11A (EC50 = 100%); PE0407 5 mg/ml with 1 mM CaCl2, T = 2 months at +4° C.: 92%
C4-activation compared to the reference N105-11A (EC50 = 100%); PE0407 5 mg/ml with 1 mM CaCl2, T = 2 months at +37° C.: 94%
C4-activation compared to the reference N105-11A (EC50 = 100%); PE0407 5 mg/ml with 1 mM CaCl2, T = 2 months at -20° C.: 91%
C4-activation compared to the reference N105-11A (EC50 = 100%); control 5 mg/ml without calcium, T = 2 months at 37° C.: 19%
C4-activation, EC50% relative to a MBL standard; PE0305 10 mg/ml, T = 0 months (% relative to MBL standard): 94
C4-activation, EC50% relative to a MBL standard; PE0305 10 mg/ml, T = 2½ months at +4° C. (% relative to MBL standard): 78
C4-activation, EC50% relative to a MBL standard; PE0305 10 mg/ml, T = 2½ months at +37° C. (% relative to MBL standard): 36
C4-activation, EC50% relative to a MBL standard; PE0305 10 mg/ml, T = 2½ months at -20° C. (% relative to MBL standard): 81
C4-activation, EC50% relative to a MBL standard; PE0305 10 mg/ml, T = 5 months at +4° C. (% relative to MBL standard): 80.3
C4-activation, EC50% relative to a MBL standard; PE0305 10 mg/ml, T = 5 months at +37° C. (% relative to MBL standard): 14.3
C4-activation, EC50% relative to a MBL standard; PE0305 10 mg/ml, T = 5 months at -20° C. (% relative to MBL standard): 81.7
C4 activation assay, EC50 relative to reference (100%); PE0238 1 mg/ml, 12 months at +4 degree (% of reference): 105
C4 activation assay, EC50 relative to reference (100%); PE0238 1 mg/ml, 12 months at -20 degree (% of reference): 104
Substance: recombinant human mannan binding lectin (MBL) (from UniProt P11226 21-248)
